B1: Programmed cell death protein 6 (Mus musculus), P12815 (parent)
chain: MAAYSYRPGPGGGPGPAAGAALPDQSFLWNVFQRVDKDRSGVISDNELQQALSNGTWTPFNPVTVRSIISMFDRENKAGVNFSEFTGVWKYITDWQNVFRTYDRDNSGMIDKNELKQALSGFGYRLSDQFHDILIRKFDRQGRGQIAFDDFIQGCIVLQRLTDIFRRYDTDQDGWIQVSYEQYLSMVFSIV
partner: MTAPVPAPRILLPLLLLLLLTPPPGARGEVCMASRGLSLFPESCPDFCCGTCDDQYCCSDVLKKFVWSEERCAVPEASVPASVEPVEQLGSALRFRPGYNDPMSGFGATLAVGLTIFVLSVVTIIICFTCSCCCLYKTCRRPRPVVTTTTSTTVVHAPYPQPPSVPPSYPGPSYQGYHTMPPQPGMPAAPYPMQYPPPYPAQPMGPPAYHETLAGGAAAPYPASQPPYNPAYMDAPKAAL

Variants of: B1
Settings: with shsa5_human SHISA5, Q8N114

Variant | effect of a mutation on the interaction
E47D;E114D | disrupting interaction strength
